# T1: PtiDC1Δ70 (AvrPtoB lacking the first 70 amino acids) (Pseudomonas syringae pv. tomato DC3000, UniProt Q8RSY1 71-553)
# T1 construct: also called AvrPtoB prey PtiDC1Δ70; avrPtoB (PtiDC1Δ70)
# T1 sequence: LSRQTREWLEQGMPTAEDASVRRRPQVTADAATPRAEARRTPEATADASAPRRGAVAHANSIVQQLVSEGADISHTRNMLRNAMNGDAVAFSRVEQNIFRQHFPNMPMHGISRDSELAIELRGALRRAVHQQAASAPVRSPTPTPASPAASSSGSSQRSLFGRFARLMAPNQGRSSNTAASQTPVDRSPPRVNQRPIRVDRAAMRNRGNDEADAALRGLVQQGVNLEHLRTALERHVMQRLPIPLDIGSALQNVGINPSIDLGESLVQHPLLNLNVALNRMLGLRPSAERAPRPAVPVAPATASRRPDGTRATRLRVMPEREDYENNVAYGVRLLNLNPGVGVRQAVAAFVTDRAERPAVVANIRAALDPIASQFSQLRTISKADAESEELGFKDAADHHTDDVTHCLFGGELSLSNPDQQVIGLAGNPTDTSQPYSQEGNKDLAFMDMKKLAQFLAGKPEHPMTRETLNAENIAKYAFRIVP
# B1: Pti1 kinase (enzyme)
# chain: MSCFSCCDDDDMHRATDNGPFMAHNSAGNNGGQRATESAQRETQTVNIQPIAVPSIAVDELKDITDNFGSKALIGEGSYGRVYHGVLKSGRAAAIKKLDSSKQPDREFLAQVSMVSRLKDENVVELLGYCVDGGFRVLAYEYAPNGSLHDILHGRKGVKGAQPGPVLSWAQRVKIAVGAAKGLEYLHEKAQPHIIHRDIKSSNILLFDDDVAKIADFDLSNQAPDMAARLHSTRVLGTFGYHAPEYAMTGQLSSKSDVYSFGVVLLELLTGRKPVDHTLPRGQQSLVTWATPRLSEDKVKQCVDARLNTDYPPKAIAKMAAVAALCVQYEADFRPNMSIVVKALQPLLPRPVPS
# notes: Bait fusion in pEG202
# Biological target: T1, PtiDC1Δ70 (AvrPtoB lacking the first 70 …)
# Assay: LexA yeast two-hybrid, AvrPtoB prey PtiDC1Δ70 against kinase bait
binder,measurement,value
B1,binding result,no binding

# Reference: patent US20060035230A1 (BOYCE THOMPSON INSTITUTE FOR PLANT RESEARCH, published 2006)
